Results as given in patent US20250262210A1 (TRUSTEES OF COLUMBIA UNIVERSITY IN THE CITY OF NEW YORK, published 2025).

Tests used:
Assay in all cases: IP/MS, LZTR1 wild type-FLAG, U87
[1] = molecular target: BUB1 (human, UniProt O43683 1-1085, limits assumed)
Summary of the method: (§1)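 Read-out: spectral counts from LC-MS/MS (Orbitrap Fusion) after MaxQuant identification. Variable modifications were Met oxidation, protein N-terminal acetylation and N/Q deamidation.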

[2] = molecular target: CDK5RAP2 (human, UniProt Q96SN8 1-1893, limits assumed)
Summary of the method: as §1

[3] = molecular target: T1, NCAPD3 (human, UniProt P42695 1-1498)
T1 sequence (looked up): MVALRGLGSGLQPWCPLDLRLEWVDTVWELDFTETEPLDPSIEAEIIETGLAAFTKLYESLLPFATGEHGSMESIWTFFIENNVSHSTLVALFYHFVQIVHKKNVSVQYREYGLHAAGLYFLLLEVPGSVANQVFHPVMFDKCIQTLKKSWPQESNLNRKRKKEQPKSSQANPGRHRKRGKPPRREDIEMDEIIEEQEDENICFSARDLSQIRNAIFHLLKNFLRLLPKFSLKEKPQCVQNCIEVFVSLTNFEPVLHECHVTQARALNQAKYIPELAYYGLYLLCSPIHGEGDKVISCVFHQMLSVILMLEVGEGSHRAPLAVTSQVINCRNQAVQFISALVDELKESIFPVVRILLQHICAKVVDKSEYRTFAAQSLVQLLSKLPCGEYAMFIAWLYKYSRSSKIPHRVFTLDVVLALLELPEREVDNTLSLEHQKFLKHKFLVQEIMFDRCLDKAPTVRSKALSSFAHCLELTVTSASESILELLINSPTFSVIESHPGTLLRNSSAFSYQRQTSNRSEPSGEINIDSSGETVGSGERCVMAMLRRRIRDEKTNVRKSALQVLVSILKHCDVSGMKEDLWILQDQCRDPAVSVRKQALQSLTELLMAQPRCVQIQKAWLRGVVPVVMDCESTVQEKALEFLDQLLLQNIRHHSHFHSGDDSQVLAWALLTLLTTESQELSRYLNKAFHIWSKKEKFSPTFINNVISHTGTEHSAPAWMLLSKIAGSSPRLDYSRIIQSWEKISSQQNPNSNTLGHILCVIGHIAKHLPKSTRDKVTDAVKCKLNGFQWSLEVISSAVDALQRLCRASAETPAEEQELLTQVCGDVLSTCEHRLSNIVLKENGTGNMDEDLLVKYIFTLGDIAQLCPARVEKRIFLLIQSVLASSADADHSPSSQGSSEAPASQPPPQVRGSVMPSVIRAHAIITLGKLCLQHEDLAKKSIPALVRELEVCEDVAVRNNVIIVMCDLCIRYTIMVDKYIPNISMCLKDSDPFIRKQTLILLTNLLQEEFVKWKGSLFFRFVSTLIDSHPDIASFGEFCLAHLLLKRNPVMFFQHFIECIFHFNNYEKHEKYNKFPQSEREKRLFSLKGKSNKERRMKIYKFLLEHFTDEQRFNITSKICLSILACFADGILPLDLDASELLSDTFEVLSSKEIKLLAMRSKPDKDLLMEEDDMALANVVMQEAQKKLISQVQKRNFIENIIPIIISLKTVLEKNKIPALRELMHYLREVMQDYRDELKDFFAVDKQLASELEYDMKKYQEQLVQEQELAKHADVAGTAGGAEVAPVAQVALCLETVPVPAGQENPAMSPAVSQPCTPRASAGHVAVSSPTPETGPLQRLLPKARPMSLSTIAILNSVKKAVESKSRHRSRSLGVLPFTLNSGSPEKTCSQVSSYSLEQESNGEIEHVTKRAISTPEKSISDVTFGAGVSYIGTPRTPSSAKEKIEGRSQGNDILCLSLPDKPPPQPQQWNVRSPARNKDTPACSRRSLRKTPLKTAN
Summary of the method: as §1

Measured: binding result

Sequence of CDK5RAP2 (Q96SN8 whole entry): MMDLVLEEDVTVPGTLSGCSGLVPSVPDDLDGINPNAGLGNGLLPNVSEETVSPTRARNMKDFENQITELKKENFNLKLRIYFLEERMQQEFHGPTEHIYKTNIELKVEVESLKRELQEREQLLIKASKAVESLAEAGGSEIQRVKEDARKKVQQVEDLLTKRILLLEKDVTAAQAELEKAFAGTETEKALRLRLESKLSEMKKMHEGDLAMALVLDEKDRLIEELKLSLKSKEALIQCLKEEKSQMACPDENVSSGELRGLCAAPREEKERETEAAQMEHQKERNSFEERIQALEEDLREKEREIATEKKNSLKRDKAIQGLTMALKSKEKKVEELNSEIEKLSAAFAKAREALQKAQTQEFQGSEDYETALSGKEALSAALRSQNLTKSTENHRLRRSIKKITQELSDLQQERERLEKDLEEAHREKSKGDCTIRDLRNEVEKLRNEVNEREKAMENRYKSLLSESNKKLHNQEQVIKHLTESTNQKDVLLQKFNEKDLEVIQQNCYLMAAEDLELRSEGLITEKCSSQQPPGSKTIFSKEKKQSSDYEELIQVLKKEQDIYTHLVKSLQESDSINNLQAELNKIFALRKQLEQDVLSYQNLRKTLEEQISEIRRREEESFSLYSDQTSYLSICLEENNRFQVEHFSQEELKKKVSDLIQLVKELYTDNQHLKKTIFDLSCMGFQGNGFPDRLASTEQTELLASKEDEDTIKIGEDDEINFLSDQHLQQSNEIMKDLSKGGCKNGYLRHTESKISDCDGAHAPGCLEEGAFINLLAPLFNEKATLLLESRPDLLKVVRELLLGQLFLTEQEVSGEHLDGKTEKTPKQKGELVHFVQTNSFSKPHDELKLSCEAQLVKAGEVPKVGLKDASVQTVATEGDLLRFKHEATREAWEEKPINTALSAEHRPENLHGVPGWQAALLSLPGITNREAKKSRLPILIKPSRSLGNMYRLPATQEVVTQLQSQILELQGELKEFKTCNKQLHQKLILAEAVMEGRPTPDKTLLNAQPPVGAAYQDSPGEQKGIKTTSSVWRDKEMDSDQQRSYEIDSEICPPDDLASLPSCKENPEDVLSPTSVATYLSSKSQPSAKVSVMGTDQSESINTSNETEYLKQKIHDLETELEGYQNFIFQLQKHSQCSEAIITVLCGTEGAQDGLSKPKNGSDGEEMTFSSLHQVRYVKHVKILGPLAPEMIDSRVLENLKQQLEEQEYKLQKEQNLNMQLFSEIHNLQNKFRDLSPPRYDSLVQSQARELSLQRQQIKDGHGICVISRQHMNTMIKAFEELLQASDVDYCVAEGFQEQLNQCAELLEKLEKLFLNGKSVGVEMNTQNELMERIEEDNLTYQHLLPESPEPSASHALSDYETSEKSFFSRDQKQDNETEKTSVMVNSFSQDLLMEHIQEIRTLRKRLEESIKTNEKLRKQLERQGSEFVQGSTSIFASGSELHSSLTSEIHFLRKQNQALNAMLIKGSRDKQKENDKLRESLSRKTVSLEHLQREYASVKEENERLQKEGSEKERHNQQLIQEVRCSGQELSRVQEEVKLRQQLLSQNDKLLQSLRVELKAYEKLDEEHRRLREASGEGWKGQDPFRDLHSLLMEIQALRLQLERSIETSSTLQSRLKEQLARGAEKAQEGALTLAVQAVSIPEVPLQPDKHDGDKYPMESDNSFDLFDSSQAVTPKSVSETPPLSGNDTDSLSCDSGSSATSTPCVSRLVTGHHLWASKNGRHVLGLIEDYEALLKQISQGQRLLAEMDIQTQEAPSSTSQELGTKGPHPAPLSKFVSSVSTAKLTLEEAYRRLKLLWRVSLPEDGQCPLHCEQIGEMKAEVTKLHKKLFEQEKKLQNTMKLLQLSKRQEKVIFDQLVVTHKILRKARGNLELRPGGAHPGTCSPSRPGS
Sequence of BUB1 (O43683 whole entry, the tested form may be a part): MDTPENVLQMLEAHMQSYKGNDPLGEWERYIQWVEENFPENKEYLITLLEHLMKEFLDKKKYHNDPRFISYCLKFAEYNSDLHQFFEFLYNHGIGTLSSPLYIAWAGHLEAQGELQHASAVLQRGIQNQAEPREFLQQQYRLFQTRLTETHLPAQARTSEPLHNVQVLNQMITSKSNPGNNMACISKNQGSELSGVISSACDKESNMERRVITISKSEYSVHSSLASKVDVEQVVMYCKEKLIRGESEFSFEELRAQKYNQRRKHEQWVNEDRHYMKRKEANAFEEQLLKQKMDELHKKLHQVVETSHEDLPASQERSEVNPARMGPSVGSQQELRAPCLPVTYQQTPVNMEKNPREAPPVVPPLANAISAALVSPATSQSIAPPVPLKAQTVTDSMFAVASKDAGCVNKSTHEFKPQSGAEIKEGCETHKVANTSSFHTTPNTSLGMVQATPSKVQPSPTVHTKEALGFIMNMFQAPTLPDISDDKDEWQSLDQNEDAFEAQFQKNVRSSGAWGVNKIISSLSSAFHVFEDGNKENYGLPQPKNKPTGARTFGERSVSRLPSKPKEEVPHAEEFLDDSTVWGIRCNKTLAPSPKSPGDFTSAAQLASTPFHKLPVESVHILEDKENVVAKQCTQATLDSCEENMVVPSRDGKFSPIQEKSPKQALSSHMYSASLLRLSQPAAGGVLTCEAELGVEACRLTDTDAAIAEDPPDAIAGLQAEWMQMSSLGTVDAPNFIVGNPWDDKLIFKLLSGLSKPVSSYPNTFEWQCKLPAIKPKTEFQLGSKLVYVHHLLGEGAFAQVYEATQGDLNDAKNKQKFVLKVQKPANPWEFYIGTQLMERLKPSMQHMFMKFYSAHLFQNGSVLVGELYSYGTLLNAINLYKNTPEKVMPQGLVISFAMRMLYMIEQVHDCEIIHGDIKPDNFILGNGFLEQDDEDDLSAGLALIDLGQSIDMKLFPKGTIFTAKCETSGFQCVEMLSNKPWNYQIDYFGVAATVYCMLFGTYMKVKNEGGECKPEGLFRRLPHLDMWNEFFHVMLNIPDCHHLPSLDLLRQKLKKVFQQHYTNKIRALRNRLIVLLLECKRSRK

B1: LZTR1-FLAG (other, human, UniProt Q8N653 1-840, looked up)
chain: MAGPGSTGGQIGAAALAGGARSKVAPSVDFDHSCSDSVEYLTLNFGPFETVHRWRRLPPCDEFVGARRSKHTVVAYKDAIYVFGGDNGKTMLNDLLRFDVKDCSWCRAFTTGTPPAPRYHHSAVVYGSSMFVFGGYTGDIYSNSNLKNKNDLFEYKFATGQWTEWKIEGRLPVARSAHGATVYSDKLWIFAGYDGNARLNDMWTIGLQDRELTCWEEVAQSGEIPPSCCNFPVAVCRDKMFVFSGQSGAKITNNLFQFEFKDKTWTRIPTEHLLRGSPPPPQRRYGHTMVAFDRHLYVFGGAADNTLPNELHCYDVDFQTWEVVQPSSDSEVGGAEVPERACASEEVPTLTYEERVGFKKSRDVFGLDFGTTSAKQPTQPASELPSGRLFHAAAVISDAMYIFGGTVDNNIRSGEMYRFQFSCYPKCTLHEDYGRLWESRQFCDVEFVLGEKEECVQGHVAIVTARSRWLRRKITQARERLAQKLEQEAAPVPREAPGVAAGGARPPLLHVAIREAEARPFEVLMQFLYTDKIKYPRKGHVEDVLLIMDVYKLALSFQLCRLEQLCRQYIEASVDLQNVLVVCESAARLQLSQLKEHCLNFVVKESHFNQVIMMKEFERLSSPLIVEIVRRKQQPPPRTPLDQPVDIGTSLIQDMKAYLEGAGAEFCDITLLLDGHPRPAHKAILAARSSYFEAMFRSFMPEDGQVNISIGEMVPSRQAFESMLRYIYYGEVNMPPEDSLYLFAAPYYYGFYNNRLQAYCKQNLEMNVTVQNVLQILEAADKTQALDMKRHCLHIIVHQFTKVSKLPTLRSLSQQLLLDIIDSLASHISDKQCAELGADI
notes: Expressed in HEK 293T, HeLa or U87 cells; used as cell lysate; also called LZTR1 wild type-FLAG; LZTR1 WT; not shown: FLAG tag at the C-terminus
binds: [1] | [2] | [3]
